Assay results published in article PMC6135941.

Target: 62 kDa active MMP-2
Experiment: enzyme inhibition kinetics

Question: With “TIMP-2-His6 Y90E expressed in HEK293H cells (from UniProt P16035 27-220) (natural protein)” as the substance, how does the Ki read?
Answer: 0.154 nM
